We go through 6 sequences from the DeepSol protein solubility set.

The nature of this data set: soluble on expression in E. coli; label from the status in PepcDB or PDB records.
For the sequence “MVPDRREQSKAKERLLEREEALAKHMSEREKRPPPKIDPPPSPKAPEPSKRVLKEKQAPLFVDTAVEGTLPPLSLLDPAEVKQKSYSPESLEAMSRLLEIKLKEFGVEVSVDSVHPGPVITRFEIQPAAGVKVSRISNLAKDLARSLAVISVRVVEVIPGKTTVGIEIPNEDRQMVRFSEVLSSPEYDEHKSTVPLALGHDIGGRPIITDLAKMPHLLVAGTTGSGKSVGVNAMLLSILFKSTPSEARLIMIDPKMLELSIYEGIPHLLCPVVTDMKEAANALRWSVAEMERRYRLMAAMGVRNLAGFNRKVKDAEEAGTPLTDPLFRRESPDDEPPQLSTLPTIVVVVDEFADMMMIVGKKVEELIARIAQKARAAGIHLILATQRPSVDVITGLIKANIPTRIAFQVSSKIDSRTILDQGGAEQLLGHGDMLYLPPGTGLPIRVHGAFVSDDEVHRVVEAWKLRGAPDYIEDILAGVDEGGGGGGSFDGGDGSGEGSEDDPLYDEAVRFVTESRRASISAVQRKLKIGYNRAARMIEAMEMAGVVTPMNTNGSREVIAPAPVRDKLHHHHHH”, the “soluble on expression in E. coli” value was “soluble”.

For the sequence “MVPQTETKAGAGFKAGVKDYRLTYYTPDYVVRDTDILAAFRMTPQPGVPPEECGAAVAAESSTGTWTTVWTDGLTSLDRYKGRCYDIEPVPGEDNQYIAYVAYPIDLFEEGSVTNMFTSIVGNVFGFKALRALRLEDLRIPPAYVKTFVGPPHGIQVERDKLNKYGRGLLGCTIKPKLGLSAKNYGRAVYECLRGGLDFTKDDENVNSQPFMRWRDRFLFVAEAIYKAQAETGEVKGHYLNATAGTCEEMMKRAVCAKELGVPIIMHDYLTGGFTANTSLAIYCRDNGLLLHIHRAMHAVIDRQRNHGIHFRVLAKALRMSGGDHLHSGTVVGKLEGEREVILGFVDLMRDDYVEKDRSRGIYFTQDWCSMPGVMPVASGGIHVWHMPALVEIFGDDACLQFGGGTLGHPWGNAPGAAANRVALEACTQARNEGRDLAREGGDVIRSACKWSPELAAACEVWKEIKFEFDTIDKL”, the “soluble on expression in E. coli” value was “soluble”.

Turning to “MVPVVALVGRPNVGKSTLFNRLTRTRDALVADFPGLTRDRKYGRAEIEGREFICIDTGGIDGTEDGVETRMAEQSLLAIEEADVVLFMVDARAGLMPADEAIAKHLRSREKPTFLVANKTDGLDPDQAVVDFYSLGLGEIYPIAASHGRGVLSLLEHVLLPWMEDLAPQEEVDEDAEYWAQFEAEENGEEEEEDDFDPQSLPIKLAIVGRPNVGKSTLTNRILGEERVVVYDMPGTTRDSIYIPMERDGREYVLIDTAGVRKRGKITDAVEKFSVIKTLQAIEDANVVMLVIDAREGISDQDLSLLGFILNSGRSLVIVVNKWDGLSQEVKEQVKETLDFRLGFIDFARVHFISALHGSGVGNLFESVREAYDSSTRRVGTSMLTRIMTMAVEDHQPPLVRGRRVKLKYAHAGGYNPPIVVIHGNQVKDLPDSYKRYLMNYFRKSLDVMGSPIRIQFKEGENPYANKRNTLTPTQMRKRKRLMKHIKKNK”, the “soluble on expression in E. coli” value is given as “not soluble”.

In the case of “MVQELLKQLQNGEAKFADVLAYIESRFEHQPTAFKNGQQQNAATENQGSAKVFSLAQIEGLNQTETLSLFAEHYAAVLNTPEGTDHQNIRQFMQHGWDGVTFEGEALQAK”, the “soluble on expression in E. coli” value is “not soluble”.

Consider “MVQESTMICVDNSEYMRNGDFQPTRLQSQQDAVNLVTQCKLRANPENAVGILSMANSVQVLSSLSTEQGRLMMKNHSIEPFGKCNFIAGIKIAHLALKHRQNRNHKMRVVLFIGSPLEEIEMNELVKIAKKMKKEKVLCDVIMFGENESDGHEKFSTFVDTLNGKEGSGSSLIVVPQGSSLTDALLQSSVCKNEDGQAAFGGGGNGMDNAFGMDVENDPDLALALRVSMEEERARQAAAAAANGGAADSGADAEVAAAAAAVPLEEMDMGAMTEEQQLEWALRLSMQENAPAEQPQVQHEQMDVDGAPAVGGDNLDDLMNNPELLQQIVDDLPAANAEKDDDKEKK”, for which the “soluble on expression in E. coli” value was “not soluble”.

Consider “MVQQKVEVRLKTGLQARPAALFVQEANRFTSDVFLEKDGKKVNAKSIMGLMSLAVSTGTEVTLIAQGEDEQEALEKLAAYVQEEVLQ”, for which the “soluble on expression in E. coli” value is “soluble”.
